The target in assay [1] is T1, HIS-tagged inhibin α-subunit prodomain (human) (UniProt P05111).
T1 sequence: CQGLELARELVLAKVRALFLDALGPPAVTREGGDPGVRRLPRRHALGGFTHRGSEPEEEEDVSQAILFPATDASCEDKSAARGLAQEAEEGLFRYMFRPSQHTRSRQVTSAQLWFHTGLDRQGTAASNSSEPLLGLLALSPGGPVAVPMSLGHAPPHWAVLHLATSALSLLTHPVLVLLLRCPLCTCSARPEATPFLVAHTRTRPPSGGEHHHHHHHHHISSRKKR
Description: IMAC (Ni-NTA) co-purification from HEK293T conditioned medium; Western blot and ELISA.

The target in assay [2] is T2, betaglycan on primary rat pituitary cells (rat) (UniProt P26342).
T2 sequence (looked up): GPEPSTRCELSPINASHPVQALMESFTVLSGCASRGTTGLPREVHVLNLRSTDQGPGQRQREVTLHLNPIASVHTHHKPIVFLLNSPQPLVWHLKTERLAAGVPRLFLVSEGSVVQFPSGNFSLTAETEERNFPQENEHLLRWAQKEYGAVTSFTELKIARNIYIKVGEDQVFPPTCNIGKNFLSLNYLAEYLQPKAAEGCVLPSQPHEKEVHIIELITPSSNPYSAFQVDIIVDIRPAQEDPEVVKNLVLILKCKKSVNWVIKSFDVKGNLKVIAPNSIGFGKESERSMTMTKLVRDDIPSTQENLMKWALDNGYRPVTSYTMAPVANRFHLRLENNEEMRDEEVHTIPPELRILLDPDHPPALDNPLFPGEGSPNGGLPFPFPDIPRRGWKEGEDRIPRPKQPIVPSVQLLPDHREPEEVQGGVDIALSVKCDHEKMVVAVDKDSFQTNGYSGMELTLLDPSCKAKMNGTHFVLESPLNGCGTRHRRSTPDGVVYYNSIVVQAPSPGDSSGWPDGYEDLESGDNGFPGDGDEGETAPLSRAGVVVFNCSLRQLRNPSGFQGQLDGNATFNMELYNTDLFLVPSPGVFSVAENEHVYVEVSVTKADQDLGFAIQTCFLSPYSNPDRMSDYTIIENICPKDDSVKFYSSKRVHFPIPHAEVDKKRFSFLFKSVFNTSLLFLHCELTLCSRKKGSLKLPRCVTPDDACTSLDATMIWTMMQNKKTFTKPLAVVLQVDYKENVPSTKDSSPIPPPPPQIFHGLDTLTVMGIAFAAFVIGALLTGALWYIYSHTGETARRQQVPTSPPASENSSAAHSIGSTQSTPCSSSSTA
Description: cell-based or functional assay.

Assay [3] deals with T3, betaglycan on LβT2 mouse pituitary gonadotrope cells (mouse) (UniProt O88393).
T3 sequence (looked up): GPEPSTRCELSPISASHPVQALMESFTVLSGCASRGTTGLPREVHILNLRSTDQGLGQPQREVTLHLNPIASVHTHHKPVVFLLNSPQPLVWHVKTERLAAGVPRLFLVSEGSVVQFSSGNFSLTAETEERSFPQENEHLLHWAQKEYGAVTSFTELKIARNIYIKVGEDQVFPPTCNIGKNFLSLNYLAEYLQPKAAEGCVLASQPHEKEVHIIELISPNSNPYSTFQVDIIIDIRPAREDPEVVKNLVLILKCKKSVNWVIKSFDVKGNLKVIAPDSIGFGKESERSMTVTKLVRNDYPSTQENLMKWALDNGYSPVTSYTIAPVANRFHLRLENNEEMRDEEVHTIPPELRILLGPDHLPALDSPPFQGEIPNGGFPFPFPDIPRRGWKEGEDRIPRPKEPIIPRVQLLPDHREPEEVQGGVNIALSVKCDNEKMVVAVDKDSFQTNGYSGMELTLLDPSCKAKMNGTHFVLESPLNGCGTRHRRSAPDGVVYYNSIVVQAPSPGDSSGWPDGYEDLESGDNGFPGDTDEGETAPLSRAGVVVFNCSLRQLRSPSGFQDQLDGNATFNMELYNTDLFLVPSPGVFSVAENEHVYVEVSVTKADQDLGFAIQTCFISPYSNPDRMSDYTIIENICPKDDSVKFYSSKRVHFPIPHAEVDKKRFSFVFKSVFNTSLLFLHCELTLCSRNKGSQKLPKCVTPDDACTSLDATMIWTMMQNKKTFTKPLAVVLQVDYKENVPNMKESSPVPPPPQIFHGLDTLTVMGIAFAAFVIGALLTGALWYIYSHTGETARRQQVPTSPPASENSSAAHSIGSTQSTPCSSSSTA
Description: cell-based or functional assay.

Assay [4] addresses T4, type I receptor (ALK4) (UniProt P36896).
T4 sequence (looked up): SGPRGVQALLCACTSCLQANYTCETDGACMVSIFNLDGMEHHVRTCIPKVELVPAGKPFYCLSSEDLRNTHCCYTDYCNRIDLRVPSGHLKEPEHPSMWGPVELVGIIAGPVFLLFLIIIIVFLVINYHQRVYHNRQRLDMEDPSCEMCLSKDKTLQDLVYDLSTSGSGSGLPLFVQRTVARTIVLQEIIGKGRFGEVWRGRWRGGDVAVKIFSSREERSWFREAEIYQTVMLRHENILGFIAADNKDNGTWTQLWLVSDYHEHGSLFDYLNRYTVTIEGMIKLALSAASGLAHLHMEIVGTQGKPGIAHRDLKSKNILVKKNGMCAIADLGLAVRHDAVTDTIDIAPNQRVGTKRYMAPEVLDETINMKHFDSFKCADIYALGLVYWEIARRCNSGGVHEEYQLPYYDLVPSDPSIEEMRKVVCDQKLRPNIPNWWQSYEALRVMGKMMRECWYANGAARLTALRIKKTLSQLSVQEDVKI
Description: cell-based or functional assay.

Bounds are passed on as bounds.

Here are results for four molecules from patent US20180273599A1.

B1: mature inhibin A (M418A) (ligand)
chain 1: SVSSTPLMSWPWSPSALRLLQRPPEEPAAHANCHRVALNISFQELGWERWIVYPPSFIFHYCHGGCGLHIPPNLSLPVPGAPPTPAQPYSLLPGAQPCCAALPGTMRPLHVRTTSDGGYSFKYETVPNLLTQHCACI
chain 2: SVSSGLECDGKVNICCKKQFFVSFKDIGWNDWIIAPSGYHANYCEGECPSHIAGTSGSSLSFHSTVINHYRMRGHSPFANLKSCCVPTKLRPMSMLYYDDGQNIIKKDIQNAIVEECGCS
As for B1, the percent of mature inhibin A co-purified with the HIS-tagged prodomain in assay [1] is > 90%.

B2: HPLC-purified mature inhibin A (ligand)
chain 1: STPLMSWPWSPSALRLLQRPPEEPAAHANCHRVALNISFQELGWERWIVYPPSFIFHYCHGGCGLHIPPNLSLPVPGAPPTPAQPYSLLPGAQPCCAALPGTMRPLHVRTTSDGGYSFKYETVPNLLTQHCACI
chain 2: GLECDGKVNICCKKQFFVSFKDIGWNDWIIAPSGYHANYCEGECPSHIAGTSGSSLSFHSTVINHYRMRGHSPFANLKSCCVPTKLRPMSMLYYDDGQNIIKKDIQNMIVEECGCS
B2: in assay [2], the IC50, decrease in FSH release by primary rat pituitary cells stood at 0.065 nM. The IC50, FSH release by LβT2 pituitary gonadotrope cells in assay [3] amounted to 1 nM.

B3: Pro-inhibin A (M418A) (ligand)
chain 1: CQGLELARELVLAKVRALFLDALGPPAVTREGGDPGVRRLPRRHALGGFTHRGSEPEEEEDVSQAILFPATDASCEDKSAARGLAQEAEEGLFRYMFRPSQHTRSRQVTSAQLWFHTGLDRQGTAASNSSEPLLGLLALSPGGPVAVPMSLGHAPPHWAVLHLATSALSLLTHPVLVLLLRCPLCTCSARPEATPFLVAHTRTRPPSGGEHHHHHHHHHISSRKKRSVSSTPLMSWPWSPSALRLLQRPPEEPAAHANCHRVALNISFQELGWERWIVYPPSFIFHYCHGGCGLHIPPNLSLPVPGAPPTPAQPYSLLPGAQPCCAALPGTMRPLHVRTTSDGGYSFKYETVPNLLTQHCACI
chain 2: DYKDDDDKSPTPGSEGHSAAPDCPSCALAALPKDVPNSQPEMVEAVKKHILNMLHLKKRPDVTQPVPKAALLNAIRKLHVGKVGENGYVEIEDDIGRRAEMNELMEQTSEIITFAESGTARKTLHFEISKEGSDLSVVERAEVWLFLKVPKANRTRTKVTIRLFQQQKHPQGSLDTGEEAEEVGLKGERSELLLSEKVVDARKSTWHVFPVSSSIQRLLDQGKSSLDVRIACEQCQESGASLVLLGKKKKKEEEGEGKKKGGGEGGAGADEEKEQSHRPFLMLQARQSEDHPHISSRKKRSVSSGLECDGKVNICCKKQFFVSFKDIGWNDWIIAPSGYHANYCEGECPSHIAGTSGSSLSFHSTVINHYRMRGHSPFANLKSCCVPTKLRPMSMLYYDDGQNIIKKDIQNAIVEECGCS
B3 returned an IC50, decrease in FSH release by primary rat pituitary cells in assay [2] of 0.075 nM. In assay [3], this molecule gave an IC50, FSH release by LβT2 pituitary gonadotrope cells of 0.045 nM and a potency in FSH release by LβT2 cells, against mature inhibin A of 22 fold.

B4: activin A (M418A), residual in the inhibin A-SCUT (M418A) preparation (ligand)
chain: B3 chain 2
In turn, B4 registered an activin response, activin-responsive luciferase reporter (A3-Luc) in HEK293 cells, against inhibin A-SCUT without M418A in assay [4] of 100 fold lower.
